Substitutions are numbered along the chain they refer to.
Assays:
[1] = target: T1, recombinant Human IL-17BR-His extracellular domain (human, UniProt Q9NRM6 18-292); assay: Biacore T200, antibody captured by anti-human Fc, Human IL17BR-His 20-1.25 nM, 1:1 model
T1 construct: extracellular domain; also called human IL17BR-his tag protein
T1 sequence (looked up): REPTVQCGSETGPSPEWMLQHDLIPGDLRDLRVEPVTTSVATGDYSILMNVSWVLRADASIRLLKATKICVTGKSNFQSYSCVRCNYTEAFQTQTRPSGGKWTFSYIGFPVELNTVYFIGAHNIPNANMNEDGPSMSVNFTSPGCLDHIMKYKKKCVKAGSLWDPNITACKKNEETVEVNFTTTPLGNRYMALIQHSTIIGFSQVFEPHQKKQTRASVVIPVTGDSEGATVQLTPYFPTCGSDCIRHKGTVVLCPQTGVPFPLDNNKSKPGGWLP
Procedure: A Human Antibody Capture kit was used to coat an anti-human IgG (Fc) antibody (in 10 mM sodium acetate, pH 5.0 immobilisation buffer) onto flow paths 2-4 a CM5 chip. Flow-path 1 was blocked and used as a blank control. This anti-human IgG coated chip was then used to immobilize the humanized antibody variants. A concentration series from 20-1.25 nM of Human IL17BR-His using a 2-fold dilution series was made using HBS-EP⁺ buffer. Purified antibody samples were diluted to 1 μg/ml in HBS-EP⁺ buffer and each injected onto one coated flow-path on the chip at a flow-rate of 10 μl/min for 2 mins in a Biacore T200 (GE Healthcare). Association time was set to 8 mins and Dissociation to 90 mins at a flow-rate of 30 μl/min Kinetics of binding/dissociation were analysed using a 1:1 model in the BIAevaluation software
8. Kinetics of the Binding of Humanized hD9040, hD9041 and hD9042 Antibodies to IL-17BR To further characterize the binding of the lead humanized candidates hD9040, hD9041 and hD9042 antibodies to Human IL-17BR-His, kinetics experiments were performed using the Biacore T200 instrument.

[2] = target: Cynomolgus monkey IL-17BR-monoFc (cynomolgus monkey, UniProt A0A2K5TUK1 18-292); assay: binding ELISA on recombinant Cynomolgus monkey IL-17BR-monoFc extracellular domain, absorbance 450 nm against antibody conc. (nM)
[3] = target: T1, recombinant Human IL-17BR-His …; assay: binding ELISA on recombinant Human IL-17BR-His extracellular domain, absorbance 450 nm against antibody conc. (nM)
Mouse IL-17BR-(Fc) = target: T2, Mouse IL-17BR-(Fc) (mouse, UniProt Q9JIP3 18-286); assay: binding ELISA on recombinant Mouse IL-17BR-(Fc) extracellular domain, absorbance 450 nm against antibody conc. (nM)
T2 construct: extracellular domain; Bought (Sino Biological); not shown: Fc part of the bought fusion (Sino Biological), not described
T2 sequence (looked up): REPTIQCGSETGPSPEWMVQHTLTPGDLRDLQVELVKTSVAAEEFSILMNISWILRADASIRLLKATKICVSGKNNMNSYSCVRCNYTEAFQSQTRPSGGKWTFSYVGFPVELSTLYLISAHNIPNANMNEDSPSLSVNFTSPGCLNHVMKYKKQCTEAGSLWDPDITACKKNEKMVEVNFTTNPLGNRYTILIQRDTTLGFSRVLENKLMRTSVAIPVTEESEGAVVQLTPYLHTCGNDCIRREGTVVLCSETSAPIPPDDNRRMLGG

[4] = target: T1, recombinant Human IL-17BR-His …; assay: binding ELISA on Human IL-17BR-His, absorbance 650 nm against antibody conc. (nM)
[5] = target: T1, recombinant Human IL-17BR-His …; assay: ELISA, plate coated with 2 ug/ml human IL17BR-his tag protein, detection with anti-human IgG F(ab')2 peroxidase antibody
Procedure: (§1) ELISA plates were coated overnight at 4° C. with 2 μg/ml human IL17RA-Fc fusion protein(Sino Biological, 10895-H03H), human IL17BR-his tag protein (Sino Biological, 13091-H08H), human IL17RC-histag protein (11747-H08B), human IL17RD-his tag (10507-H08H). The next day, plates were blocked with 1% BSA in PBS, followed by the addition of hD9042. The binding specificity of hD9042 was measured as the absorbance at 450 nm using anti-human IgG F(ab′)2 peroxidase antibody (Jackson ImmunoResearch Inc).

human IL17RD-his tag = target: T3, human IL17RD-his tag (human, UniProt Q8NFM7 17-299, limits assumed); assay: ELISA, plate coated with 2 ug/ml human IL17RD-his tag, absorbance 450 nm
T3 construct: Bought
T3 sequence (looked up): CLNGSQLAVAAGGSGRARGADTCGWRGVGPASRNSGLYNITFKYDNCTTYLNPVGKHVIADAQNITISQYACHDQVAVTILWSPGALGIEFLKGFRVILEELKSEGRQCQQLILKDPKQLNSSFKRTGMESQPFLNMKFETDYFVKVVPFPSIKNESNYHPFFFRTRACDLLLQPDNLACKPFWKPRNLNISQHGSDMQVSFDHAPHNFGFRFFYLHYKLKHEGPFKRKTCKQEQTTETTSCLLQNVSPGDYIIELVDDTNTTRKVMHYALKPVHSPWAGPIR
Procedure: as §1

[6] = target: T4, human IL17RA-Fc fusion protein (human, UniProt Q96F46 33-320); assay: ELISA, plate coated with 2 ug/ml human IL17RA-Fc fusion protein, absorbance 450 nm
T4 construct: Bought; not shown: Fc part of the bought fusion, not described
T4 sequence (looked up): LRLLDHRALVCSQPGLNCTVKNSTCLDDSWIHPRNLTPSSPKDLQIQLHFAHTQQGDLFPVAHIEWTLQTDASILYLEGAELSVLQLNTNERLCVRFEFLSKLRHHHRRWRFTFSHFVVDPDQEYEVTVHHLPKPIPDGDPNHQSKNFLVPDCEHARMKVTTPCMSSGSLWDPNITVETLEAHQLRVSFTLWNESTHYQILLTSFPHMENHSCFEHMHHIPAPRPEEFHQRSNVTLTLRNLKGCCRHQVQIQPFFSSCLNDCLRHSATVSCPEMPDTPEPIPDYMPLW
Procedure: as §1

[7] = target: T5, human IL17RC-histag protein (human, UniProt Q8NAC3-2 21-467, limits assumed); assay: ELISA, plate coated with 2 ug/ml human IL17RC-histag protein, absorbance 450 nm
T5 construct: Bought
T5 sequence (looked up): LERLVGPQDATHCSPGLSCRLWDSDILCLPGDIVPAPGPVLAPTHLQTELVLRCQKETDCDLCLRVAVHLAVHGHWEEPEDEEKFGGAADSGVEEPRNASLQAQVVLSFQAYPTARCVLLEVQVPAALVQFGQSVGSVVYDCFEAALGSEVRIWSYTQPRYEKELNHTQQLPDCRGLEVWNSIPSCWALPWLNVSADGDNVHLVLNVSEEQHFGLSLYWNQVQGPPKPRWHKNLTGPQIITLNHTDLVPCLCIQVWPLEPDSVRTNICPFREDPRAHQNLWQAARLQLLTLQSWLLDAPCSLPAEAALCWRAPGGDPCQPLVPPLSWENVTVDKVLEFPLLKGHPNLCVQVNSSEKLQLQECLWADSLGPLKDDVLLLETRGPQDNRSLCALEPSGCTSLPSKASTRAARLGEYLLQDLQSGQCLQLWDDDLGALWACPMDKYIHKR
Procedure: as §1

Sequence of Cynomolgus monkey IL-17BR-monoFc (A0A2K5TUK1 entry or part of it): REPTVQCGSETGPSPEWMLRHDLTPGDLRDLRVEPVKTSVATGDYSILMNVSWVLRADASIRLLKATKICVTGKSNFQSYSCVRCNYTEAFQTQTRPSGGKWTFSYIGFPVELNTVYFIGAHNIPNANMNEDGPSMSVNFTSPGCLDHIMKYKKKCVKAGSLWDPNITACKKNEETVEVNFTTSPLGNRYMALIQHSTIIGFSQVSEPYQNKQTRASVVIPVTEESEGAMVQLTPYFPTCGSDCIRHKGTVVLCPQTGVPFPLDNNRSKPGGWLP

B1: chimeric antibody cD9001 (antibody, V domains shown)
VH: QVQLQQPGAELVRPGASVKLSCKTSGYTFISYWMNWVKQGPEQGLEWIGRIDPYDSEIQYNQKFKDKAILTVDKSSSAAYMQLISLTSEDSAVYYCARSGGFDWFAYWGQGTLVTVSA
VL: DIQMTQSPASLSVSVGETVTITCRASENINSNLAWYQQKKGKSPQLLVYDVTNLADGVPSRFSGSGSGTQYSLKINSLQSEDFGSYYCQHFWRPPYTFGGGTNLEIK
notes: Mouse D9.2 variable domains on human IgG1/kappa constant regions; also called chimeric D9.2
Kd [1]: 0.017 nM | koff [1]: 5e-05 s⁻¹ | kon [1]: 2.9e+06 M⁻¹ s⁻¹ | EC50 [2]: 0.291 nM | EC50 [3]: 0.23 nM | EC50 (Mouse IL-17BR-(Fc)): 0.216 nM

B2: humanized antibody hD9040 (antibody, V domains shown)
VH: EVQLVQSGAEVKKPGASVKVSCKTSGYTFISYWMNWVRQAPGQGLEWMGRIDPYDSEIQYNQKFKDRVTLTRDTSISTAYMELSRLRSDDTAVYYCARSGGFDWFAYWGQGTLVTVSS
VL: DIQMTQSPSSLSASVGDRVTITCRASENINSNLAWYQQKPGKAPKLLLYDVTNLADGVPSRFSGSGSGTDYTLTISSLQPEDFATYYCQHFWGPPYTFGGGTKVEIK
notes: Human IgG1/kappa (pHuG1, pHuK vectors)
Kd [1]: 0.02 nM | koff [1]: 6.66e-05 s⁻¹ | kon [1]: 3.42e+06 M⁻¹ s⁻¹ | EC50 [4]: 0.474 nM

B3: humanized antibody hD9041 (antibody, V domains shown)
VH: B2 VH with N61A, K65Q, D66G
VL: B2 VL
notes: as for B2
Kd [1]: 0.011 nM | koff [1]: 4.44e-05 s⁻¹ | kon [1]: 3.89e+06 M⁻¹ s⁻¹ | EC50 [4]: 0.499 nM

B4: humanized antibody hD9042 (antibody, V domains shown)
VH: B2 VH with E1Q, T24A, L70M
VL: B2 VL
notes: Human IgG1/kappa (pHuG1, pHuK vectors); also called lead candidate
Kd [1]: 0.017 nM | koff [1]: 8.23e-05 s⁻¹ | kon [1]: 4.85e+06 M⁻¹ s⁻¹ | EC50 (read off the curve) [5]: ~0.3 nM | binding result (human IL17RD-his tag): no binding | binding result [6]: no binding | EC50 [4]: 0.414 nM | binding result [7]: no binding

Source: US20220041740A1 (LIFEARC, published 2022)
